Test results reported in the supplement of paper PMC10065799, “High-throughput profiling of sequence recognition by tyrosine kinases and SH2 domains using bacterial peptide display” (eLife, 2023).

Experiments:
AncSZ = experiment: phosphorylation enrichment, bacterial display (enrichment ratio); higher = better substrate or ligand; peptides without Tyr show the background
EPHB1 = EPHB1 (UniProt P54762); experiment: as above
EPHB2 = EPHB2 (UniProt P29323); experiment: as above
FGFR1 = FGFR1 (UniProt P11362); experiment: as above
FGFR3 = FGFR3 (UniProt P22607); experiment: as above
Fer (mouse) = experiment: as above
Fes = Fes (UniProt P07332); experiment: as above
Fyn = Fyn (UniProt P06241); experiment: as above
Hck = Hck (UniProt P08631); experiment: as above
Jak2 = Jak2 (UniProt O60674); experiment: as above
MERTK = MERTK (UniProt Q12866); experiment: as above
c-Abl (mouse) = experiment: as above
c-Src = experiment: as above
Grb2 SH2 = Grb2 SH2 (UniProt P62993); experiment: SH2 binding enrichment of the phosphorylated peptide, bacterial display (enrichment ratio); higher = better substrate or ligand; peptides without Tyr show the background
SHP2-C SH2 = experiment: as above
c-Src SH2 = experiment: as above
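For SH2 binding enrichment of the phosphorylated peptide, bacterial display in this document: peptide library displayed on the E. coli surface as eCPX fusions, selected cells deep-sequenced, score is each peptide's frequency after selection divided by its frequency in the input.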
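For phosphorylation enrichment, bacterial display in this document: 11-residue human phosphosite peptides and single-mutation variants displayed on the E. coli surface, counted by deep sequencing, each peptide's frequency after selection divided by its frequency in the unselected input library; frequency after pTyr selection over input frequency; kinase dosed for 20-30% of maximal phosphorylation in three min.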

Sequence of Fes (P07332 whole entry, looked up): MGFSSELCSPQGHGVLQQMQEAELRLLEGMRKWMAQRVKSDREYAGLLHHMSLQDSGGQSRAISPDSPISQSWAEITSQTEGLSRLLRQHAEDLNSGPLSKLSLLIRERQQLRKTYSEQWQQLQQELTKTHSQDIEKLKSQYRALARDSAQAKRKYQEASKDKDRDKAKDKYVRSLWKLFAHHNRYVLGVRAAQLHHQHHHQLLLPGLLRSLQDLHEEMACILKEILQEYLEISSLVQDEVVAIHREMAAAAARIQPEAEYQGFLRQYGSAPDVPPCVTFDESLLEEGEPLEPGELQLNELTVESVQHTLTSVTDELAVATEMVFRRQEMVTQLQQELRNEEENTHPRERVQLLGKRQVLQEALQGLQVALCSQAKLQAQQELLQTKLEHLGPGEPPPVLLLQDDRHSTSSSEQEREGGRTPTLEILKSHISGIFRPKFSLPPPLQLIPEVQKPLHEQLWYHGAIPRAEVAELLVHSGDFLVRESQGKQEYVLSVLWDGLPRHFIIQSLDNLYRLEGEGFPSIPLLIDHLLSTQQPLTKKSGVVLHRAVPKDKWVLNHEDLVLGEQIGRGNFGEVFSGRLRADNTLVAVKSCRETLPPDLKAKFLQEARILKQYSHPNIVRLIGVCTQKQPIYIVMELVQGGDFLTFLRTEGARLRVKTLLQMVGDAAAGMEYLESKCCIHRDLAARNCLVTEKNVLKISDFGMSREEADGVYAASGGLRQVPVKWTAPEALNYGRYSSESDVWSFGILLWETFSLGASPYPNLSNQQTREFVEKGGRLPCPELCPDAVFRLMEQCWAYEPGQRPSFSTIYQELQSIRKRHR
Sequence of Jak2 (O60674 whole entry, looked up): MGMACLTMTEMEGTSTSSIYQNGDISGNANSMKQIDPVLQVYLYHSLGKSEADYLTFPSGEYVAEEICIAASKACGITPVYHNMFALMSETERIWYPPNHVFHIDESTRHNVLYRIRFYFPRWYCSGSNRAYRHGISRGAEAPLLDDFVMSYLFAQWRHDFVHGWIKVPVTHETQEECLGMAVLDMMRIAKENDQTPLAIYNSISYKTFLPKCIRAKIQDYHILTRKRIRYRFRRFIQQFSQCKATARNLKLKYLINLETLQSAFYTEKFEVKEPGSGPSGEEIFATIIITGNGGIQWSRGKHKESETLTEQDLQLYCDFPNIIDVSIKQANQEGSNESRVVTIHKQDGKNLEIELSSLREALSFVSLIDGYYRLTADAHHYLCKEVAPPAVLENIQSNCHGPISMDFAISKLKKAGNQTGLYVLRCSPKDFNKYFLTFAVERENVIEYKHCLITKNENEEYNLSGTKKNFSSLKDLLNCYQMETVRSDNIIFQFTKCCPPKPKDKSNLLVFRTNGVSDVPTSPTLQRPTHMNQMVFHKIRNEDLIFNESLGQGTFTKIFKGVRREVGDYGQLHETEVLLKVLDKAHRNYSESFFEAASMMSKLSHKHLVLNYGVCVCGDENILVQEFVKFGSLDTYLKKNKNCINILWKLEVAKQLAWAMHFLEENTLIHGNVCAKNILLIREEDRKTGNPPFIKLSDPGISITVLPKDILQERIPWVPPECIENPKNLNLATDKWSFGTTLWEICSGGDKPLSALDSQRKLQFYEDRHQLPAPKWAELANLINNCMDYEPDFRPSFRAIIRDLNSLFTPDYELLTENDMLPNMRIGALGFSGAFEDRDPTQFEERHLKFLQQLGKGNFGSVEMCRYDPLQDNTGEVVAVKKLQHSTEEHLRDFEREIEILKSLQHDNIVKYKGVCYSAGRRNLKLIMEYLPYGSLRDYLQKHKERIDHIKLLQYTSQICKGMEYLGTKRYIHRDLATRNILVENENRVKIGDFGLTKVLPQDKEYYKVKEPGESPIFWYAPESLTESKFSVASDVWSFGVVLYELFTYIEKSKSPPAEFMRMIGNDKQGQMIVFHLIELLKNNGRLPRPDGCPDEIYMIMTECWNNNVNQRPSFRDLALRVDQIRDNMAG
Sequence of FGFR3 (P22607 whole entry, looked up): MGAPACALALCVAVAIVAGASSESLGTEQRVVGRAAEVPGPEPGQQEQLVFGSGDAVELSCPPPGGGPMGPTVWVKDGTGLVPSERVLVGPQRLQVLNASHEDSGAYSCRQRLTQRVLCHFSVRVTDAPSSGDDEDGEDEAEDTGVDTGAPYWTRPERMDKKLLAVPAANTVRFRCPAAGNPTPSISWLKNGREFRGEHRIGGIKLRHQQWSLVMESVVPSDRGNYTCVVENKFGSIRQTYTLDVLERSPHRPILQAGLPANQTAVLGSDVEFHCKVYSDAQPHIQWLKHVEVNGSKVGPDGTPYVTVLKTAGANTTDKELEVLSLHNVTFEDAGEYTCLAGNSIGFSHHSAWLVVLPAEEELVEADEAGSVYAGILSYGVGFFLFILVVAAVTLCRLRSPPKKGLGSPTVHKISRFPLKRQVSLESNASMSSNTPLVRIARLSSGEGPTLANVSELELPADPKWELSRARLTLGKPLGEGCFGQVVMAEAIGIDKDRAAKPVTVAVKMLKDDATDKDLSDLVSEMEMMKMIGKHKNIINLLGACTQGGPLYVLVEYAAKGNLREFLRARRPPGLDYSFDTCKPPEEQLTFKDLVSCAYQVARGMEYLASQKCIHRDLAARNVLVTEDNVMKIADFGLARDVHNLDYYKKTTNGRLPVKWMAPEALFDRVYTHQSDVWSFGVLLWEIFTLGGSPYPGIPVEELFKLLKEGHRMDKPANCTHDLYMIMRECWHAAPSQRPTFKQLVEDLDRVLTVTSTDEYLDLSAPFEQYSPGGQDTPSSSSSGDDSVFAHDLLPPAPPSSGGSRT
Sequence of Hck (P08631 whole entry, looked up): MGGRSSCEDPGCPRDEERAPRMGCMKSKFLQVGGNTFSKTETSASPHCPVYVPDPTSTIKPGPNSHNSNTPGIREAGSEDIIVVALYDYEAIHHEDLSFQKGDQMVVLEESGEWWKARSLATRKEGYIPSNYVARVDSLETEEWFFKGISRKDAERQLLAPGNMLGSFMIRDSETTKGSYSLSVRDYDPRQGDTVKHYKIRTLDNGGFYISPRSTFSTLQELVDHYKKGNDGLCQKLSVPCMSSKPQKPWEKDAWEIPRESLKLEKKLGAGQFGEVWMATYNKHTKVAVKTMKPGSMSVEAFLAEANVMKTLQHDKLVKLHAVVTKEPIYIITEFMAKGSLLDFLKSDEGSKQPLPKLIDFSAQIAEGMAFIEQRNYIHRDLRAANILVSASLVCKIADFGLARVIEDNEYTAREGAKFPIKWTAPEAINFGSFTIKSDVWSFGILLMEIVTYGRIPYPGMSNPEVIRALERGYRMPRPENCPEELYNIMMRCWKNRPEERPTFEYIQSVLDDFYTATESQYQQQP
Sequence of Fyn (P06241 whole entry, looked up): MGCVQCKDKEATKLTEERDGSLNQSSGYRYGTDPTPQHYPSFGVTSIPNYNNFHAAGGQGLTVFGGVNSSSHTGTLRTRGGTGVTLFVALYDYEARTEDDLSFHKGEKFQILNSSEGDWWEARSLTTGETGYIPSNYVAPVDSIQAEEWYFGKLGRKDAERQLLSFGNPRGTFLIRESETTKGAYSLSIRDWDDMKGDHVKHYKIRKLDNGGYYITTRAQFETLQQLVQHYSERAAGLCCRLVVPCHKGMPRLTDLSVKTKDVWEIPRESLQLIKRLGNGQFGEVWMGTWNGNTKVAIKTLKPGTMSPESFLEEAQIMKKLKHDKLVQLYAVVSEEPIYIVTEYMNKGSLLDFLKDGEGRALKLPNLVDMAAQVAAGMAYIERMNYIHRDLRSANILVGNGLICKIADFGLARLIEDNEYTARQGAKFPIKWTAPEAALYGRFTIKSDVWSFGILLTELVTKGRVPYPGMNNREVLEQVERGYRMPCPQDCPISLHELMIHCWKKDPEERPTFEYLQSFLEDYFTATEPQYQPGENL
Sequence of EPHB2 (P29323 whole entry, looked up): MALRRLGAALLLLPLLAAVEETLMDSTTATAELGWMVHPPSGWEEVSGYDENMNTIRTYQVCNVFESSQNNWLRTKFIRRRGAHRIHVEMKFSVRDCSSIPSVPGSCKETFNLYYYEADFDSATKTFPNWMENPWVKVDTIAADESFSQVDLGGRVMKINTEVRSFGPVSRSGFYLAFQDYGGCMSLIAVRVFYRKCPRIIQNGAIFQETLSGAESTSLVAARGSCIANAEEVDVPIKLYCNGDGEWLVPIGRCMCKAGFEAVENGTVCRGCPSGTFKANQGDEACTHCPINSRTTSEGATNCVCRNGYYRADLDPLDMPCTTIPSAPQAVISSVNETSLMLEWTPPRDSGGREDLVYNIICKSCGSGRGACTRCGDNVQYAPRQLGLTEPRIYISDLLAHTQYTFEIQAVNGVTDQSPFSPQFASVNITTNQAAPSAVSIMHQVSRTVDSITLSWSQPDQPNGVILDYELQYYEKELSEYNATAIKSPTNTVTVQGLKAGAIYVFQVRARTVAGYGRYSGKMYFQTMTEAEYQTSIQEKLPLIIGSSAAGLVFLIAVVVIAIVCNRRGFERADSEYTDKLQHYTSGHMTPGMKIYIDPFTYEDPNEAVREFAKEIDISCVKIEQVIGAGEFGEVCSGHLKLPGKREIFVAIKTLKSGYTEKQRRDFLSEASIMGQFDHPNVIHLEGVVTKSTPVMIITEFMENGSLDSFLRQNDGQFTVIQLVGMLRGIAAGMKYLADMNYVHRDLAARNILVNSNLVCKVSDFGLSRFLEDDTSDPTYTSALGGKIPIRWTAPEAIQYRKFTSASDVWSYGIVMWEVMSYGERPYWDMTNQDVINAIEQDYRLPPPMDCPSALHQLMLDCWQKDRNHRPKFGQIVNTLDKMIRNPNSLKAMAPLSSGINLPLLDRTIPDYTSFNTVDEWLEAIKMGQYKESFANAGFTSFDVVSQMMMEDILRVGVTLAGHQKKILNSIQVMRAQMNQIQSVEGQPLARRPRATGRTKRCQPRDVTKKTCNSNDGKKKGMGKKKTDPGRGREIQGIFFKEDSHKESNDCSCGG

Row | SH2 binding enrichment (Grb2 SH2) | SH2 binding enrichment (SHP2-C SH2) | SH2 binding enrichment (c-Src SH2) | Sequence | phosphorylation enrichment (AncSZ) | phosphorylation enrichment (EPHB1) | phosphorylation enrichment (EPHB2) | phosphorylation enrichment (FGFR1) | phosphorylation enrichment (FGFR3) | phosphorylation enrichment (Fer (mouse)) | phosphorylation enrichment (Fes) | phosphorylation enrichment (Fyn) | phosphorylation enrichment (Hck) | phosphorylation enrichment (Jak2) | phosphorylation enrichment (MERTK) | phosphorylation enrichment (c-Abl (mouse)) | phosphorylation enrichment (c-Src)
1 | 0.799 | 0.79 | 0.441 | IPQEEYTATGL | 1.16 | 0.622 | 0.512 | 0.506 | 0.653 | 0.562 | 1.39 | 0.437 | 0.461 | 0.955 | 0.378 | 0.924 | 0.56
2 | 0.769 | 0.699 | 0.685 | IQKKFYRAILE [CHD7_Y1218_YF] | 0.523 | 0.396 | 0.275 | 0.37 | 0.46 | 0.398 | 0.727 | 0.344 | 0.332 | 0.636 | 0.409 | 0.51 | 0.414
3 | 0.895 | 1.05 | 0.606 | IRGNMYFENSF [EGFR_Y112_YF] | 0.879 | 0.581 | 0.547 | 0.514 | 0.713 | 0.527 | 1.07 | 0.438 | 0.457 | 0.841 | 0.536 | 0.583 | 0.395
4 | 1.44 | 0.944 | 0.82 | IRKVLYANNVM [ACTA1_Y296_D294V] | 0.569 | 0.311 | 0.368 | 0.567 | 0.395 | 0.337 | 0.599 | 0.286 | 0.297 | 0.637 | 0.328 | 0.529 | 0.325
5 | 0.884 | 0.948 | 2.77 | IRTIDYRYTVC [IDS_Y497_W502C] | 0.965 | 0.653 | 0.52 | 0.555 | 0.754 | 0.572 | 1.02 | 0.51 | 0.561 | 0.965 | 0.478 | 0.65 | 0.461
6 | 0.806 | 0.639 | 0.434 | ISDDKYGRIRL [ARCN1_Y310] | 0.484 | 0.357 | 1.04 | 0.407 | 0.357 | 0.312 | 0.501 | 0.434 | 0.454 | 0.419 | 0.325 | 0.433 | 0.56
7 | 0.762 | 0.841 | 0.735 | ISDNAYQFMLT [MYH7_Y162_YF] | 1.22 | 0.662 | 0.526 | 1.83 | 1.51 | 5.75 | 1.19 | 0.654 | 0.684 | 0.957 | 0.883 | 1.09 | 0.807
8 | 1.04 | 0.521 | 0.524 | ISIFHCAKGQP [MPZ_Y82_Y82C] | 1.33 | 0.773 | 0.845 | 0.729 | 1.02 | 0.643 | 1.7 | 0.602 | 0.608 | 1.41 | 0.62 | 0.954 | 0.609
9 | 0.655 | 0.426 | 0.362 | ISRASYYRKGG [ALK_Y1282_Y1278S] | 0.588 | 0.427 | 0.428 | 0.409 | 0.532 | 0.473 | 0.701 | 0.511 | 0.496 | 0.51 | 0.576 | 0.569 | 0.509
10 | 0.938 | 1.04 | 0.831 | ISRLKYPVSQQ [BTK_Y375] | 0.419 | 0.331 | 0.383 | 0.317 | 0.399 | 0.318 | 0.59 | 0.355 | 0.352 | 0.534 | 0.313 | 0.486 | 0.342
11 | 0.781 | 0.629 | 0.365 | ISSLDYISKSK [VAV3_Y294_T298S] | 0.648 | 0.38 | 0.467 | 0.458 | 0.587 | 0.443 | 0.688 | 0.431 | 0.443 | 0.743 | 0.482 | 0.81 | 0.478
12 | 0.665 | 0.799 | 0.475 | ITGNGYYFRVF [MYBPC3_Y1135_I1131T] | 1.04 | 0.561 | 0.589 | 0.41 | 0.72 | 0.488 | 1.08 | 0.384 | 0.385 | 0.936 | 0.294 | 0.701 | 0.301
13 | 1.05 | 0.791 | 0.99 | ITNHIYTWVDP [DFNB31_Y234_V229I] | 2.4 | 2.92 | 1.62 | 3.64 | 2.95 | 9.75 | 1.97 | 4.11 | 2.66 | 1.06 | 8.78 | 0.832 | 4.2
14 | 1.72 | 1.84 | 1.49 | ITNLLYHLVGW [GBA_Y412_V414L] | 1.09 | 2.74 | 1.04 | 6.54 | 5.47 | 3.17 | 0.866 | 2.56 | 4.8 | 1.47 | 8.16 | 0.703 | 2.99
15 | 0.829 | 0.559 | 0.462 | KAFDMYSGDVM [FAM3D_Y122] | 0.832 | 1.18 | 1.15 | 0.593 | 0.569 | 0.423 | 0.732 | 0.846 | 1.23 | 0.653 | 0.876 | 0.508 | 0.935
16 | 1.08 | 0.961 | 0.637 | KDHPDYKYPPR [SOX10_Y171_Q174P] | 0.612 | 0.355 | 0.392 | 0.549 | 0.522 | 0.345 | 0.601 | 0.438 | 0.381 | 0.462 | 0.331 | 0.515 | 0.4
17 | 1.03 | 1.17 | 0.829 | KDHPDYKYQRR [SOX10_Y171_P175R] | 0.483 | 0.33 | 0.3 | 0.402 | 0.369 | 0.303 | 0.574 | 0.283 | 0.367 | 0.519 | 0.349 | 0.516 | 0.319
